From paper PMC8930183, “Structure of the Pf12 and Pf41 heterodimeric complex of Plasmodium falciparum 6-cysteine proteins” (FEMS Microbes, 2022)

T1: Pf41 D1D2 (residues 21-368), untagged (Plasmodium falciparum, UniProt Q8I1Y0 21-368)
T1 construct: Pf41, Plasmodium falciparum 6-cysteine protein, residues K21-S368 (D1 with the inserted-domain-like region ID, and D2); lacks the signal peptide and ten C-terminal residues; After TEV cleavage three residues, GAS, remain at the N-terminus as cloning artefacts; N-glycosylation sites kept; treated with PNGase F before crystallisation; also called Pf41 wildtype; source: Spodoptera frugiperda 21 …
T1 sequence (looked up): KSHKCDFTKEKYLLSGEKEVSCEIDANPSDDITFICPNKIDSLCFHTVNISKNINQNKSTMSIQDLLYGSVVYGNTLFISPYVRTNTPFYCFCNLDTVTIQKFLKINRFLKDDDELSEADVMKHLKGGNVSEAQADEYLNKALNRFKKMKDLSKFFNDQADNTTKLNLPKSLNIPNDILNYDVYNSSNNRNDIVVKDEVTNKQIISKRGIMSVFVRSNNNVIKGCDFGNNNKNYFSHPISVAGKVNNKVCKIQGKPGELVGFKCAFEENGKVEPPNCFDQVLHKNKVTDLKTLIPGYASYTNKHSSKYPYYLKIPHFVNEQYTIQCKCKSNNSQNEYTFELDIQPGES

T2: Pf41 D1D2 F166L (Plasmodium falciparum, UniProt Q8I1Y0 21-368, F166 L)
T2 construct: Pf41, Plasmodium falciparum, residues K21-S368 (D1D2); source: Spodoptera frugiperda 21 cells, purified (Ni-IMAC, TEV cleavage, SEC); not shown: His8, N-terminal, cleaved
T2 sequence: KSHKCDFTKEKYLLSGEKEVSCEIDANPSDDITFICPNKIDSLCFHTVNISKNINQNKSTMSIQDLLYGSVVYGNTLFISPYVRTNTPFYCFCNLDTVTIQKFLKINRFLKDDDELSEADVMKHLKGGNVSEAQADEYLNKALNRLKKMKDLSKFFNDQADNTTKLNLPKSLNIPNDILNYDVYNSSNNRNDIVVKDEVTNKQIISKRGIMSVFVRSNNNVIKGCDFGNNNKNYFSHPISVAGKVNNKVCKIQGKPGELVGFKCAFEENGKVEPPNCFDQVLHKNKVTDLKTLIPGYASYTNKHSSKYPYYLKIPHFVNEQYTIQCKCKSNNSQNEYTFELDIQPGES

T3: Pf41 D1D2 H336A (Plasmodium falciparum, UniProt Q8I1Y0 21-368, H336 to alanine)
T3 construct: Pf41, Plasmodium falciparum, residues K21-S368 (D1D2); source: Spodoptera frugiperda 21 cells, purified (Ni-IMAC, TEV cleavage, SEC); not shown: His8, N-terminal, cleaved
T3 sequence: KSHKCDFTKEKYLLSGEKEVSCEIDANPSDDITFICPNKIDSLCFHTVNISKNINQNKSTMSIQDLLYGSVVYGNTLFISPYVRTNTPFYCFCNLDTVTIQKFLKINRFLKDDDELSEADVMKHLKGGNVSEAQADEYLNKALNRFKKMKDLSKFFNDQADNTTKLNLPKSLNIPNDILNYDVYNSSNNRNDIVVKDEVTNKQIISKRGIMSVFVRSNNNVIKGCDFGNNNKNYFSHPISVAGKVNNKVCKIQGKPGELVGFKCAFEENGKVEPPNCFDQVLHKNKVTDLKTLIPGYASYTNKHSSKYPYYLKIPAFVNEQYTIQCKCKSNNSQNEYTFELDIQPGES

T4: Pf41 D1D2 N339A (Plasmodium falciparum, UniProt Q8I1Y0 21-368, N339A)
T4 construct: Pf41, Plasmodium falciparum, residues K21-S368 (D1D2); source: Spodoptera frugiperda 21 cells, purified (Ni-IMAC, TEV cleavage, SEC); not shown: His8, N-terminal, cleaved
T4 sequence: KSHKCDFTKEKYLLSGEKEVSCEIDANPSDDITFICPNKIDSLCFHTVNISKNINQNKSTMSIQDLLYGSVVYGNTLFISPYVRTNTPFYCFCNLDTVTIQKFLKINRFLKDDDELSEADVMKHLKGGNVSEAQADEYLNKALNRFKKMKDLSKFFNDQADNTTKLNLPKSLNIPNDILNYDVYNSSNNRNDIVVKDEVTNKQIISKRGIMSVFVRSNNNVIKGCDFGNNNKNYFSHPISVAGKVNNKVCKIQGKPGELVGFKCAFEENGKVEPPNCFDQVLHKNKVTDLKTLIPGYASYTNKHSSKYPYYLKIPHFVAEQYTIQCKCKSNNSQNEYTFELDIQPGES

T5: Pf41 D1D2 E340A (Plasmodium falciparum, UniProt Q8I1Y0 21-368, E340A)
T5 construct: Pf41, Plasmodium falciparum, residues K21-S368 (D1D2); source: Spodoptera frugiperda 21 cells, purified (Ni-IMAC, TEV cleavage, SEC); not shown: His8, N-terminal, cleaved
T5 sequence: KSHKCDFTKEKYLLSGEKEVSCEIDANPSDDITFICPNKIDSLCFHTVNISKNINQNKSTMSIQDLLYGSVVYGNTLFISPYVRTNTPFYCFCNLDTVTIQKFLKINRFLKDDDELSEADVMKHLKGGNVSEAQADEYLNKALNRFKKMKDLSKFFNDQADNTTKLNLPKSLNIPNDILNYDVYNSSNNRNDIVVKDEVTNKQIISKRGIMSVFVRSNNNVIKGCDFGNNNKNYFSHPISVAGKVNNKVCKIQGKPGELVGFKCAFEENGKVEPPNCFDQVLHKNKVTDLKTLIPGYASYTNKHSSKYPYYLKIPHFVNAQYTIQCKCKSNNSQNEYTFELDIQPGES

T6: Pf41 D1D2 E367A (Plasmodium falciparum, UniProt Q8I1Y0 21-368, E367A)
T6 construct: Pf41, Plasmodium falciparum, residues K21-S368 (D1D2); source: Spodoptera frugiperda 21 cells, purified (Ni-IMAC, TEV cleavage, SEC); not shown: His8, N-terminal, cleaved
T6 sequence: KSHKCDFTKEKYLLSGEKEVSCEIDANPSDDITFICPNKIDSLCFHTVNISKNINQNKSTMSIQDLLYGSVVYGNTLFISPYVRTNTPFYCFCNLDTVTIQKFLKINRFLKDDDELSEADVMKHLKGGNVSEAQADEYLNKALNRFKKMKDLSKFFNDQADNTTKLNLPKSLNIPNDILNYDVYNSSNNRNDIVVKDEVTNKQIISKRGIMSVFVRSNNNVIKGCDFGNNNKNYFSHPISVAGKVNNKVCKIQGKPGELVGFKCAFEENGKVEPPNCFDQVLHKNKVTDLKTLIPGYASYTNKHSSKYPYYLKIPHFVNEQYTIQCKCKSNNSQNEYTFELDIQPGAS


Legend:
Details in all cases: both partners purified
[1] = target: T1, Pf41 D1D2 (residues 21-368), untagged; assay: BLI; Octet RED96e; octa-histidine tagged Pf12 loaded on NTA sensors; untagged Pf41 wildtype or mutant 31-1000 nM; PBS pH 7.4, 0.1% BSA, 0.05% TWEEN-20, 25°C; read-out relative maximum response against wildtype
[2] = target: T2, Pf41 D1D2 F166L; assay: as above
[3] = target: T3, Pf41 D1D2 H336A; assay: as above
[4] = target: T4, Pf41 D1D2 N339A; assay: as above
[5] = target: T5, Pf41 D1D2 E340A; assay: as above
[6] = target: T6, Pf41 D1D2 E367A; assay: as above
[7] = target: T7, Pf12 D1D2 (residues 28-304), untagged (Plasmodium falciparum, UniProt C6KSX0); assay: BLI; Octet RED96e; nanobodies loaded on NTA sensors; untagged Pf12 or Pf41 (6-200 nM) or their domains in solution; PBS pH 7.4, 0.1% BSA, 0.05% TWEEN-20, 25°C; global 1:1 fit
T7 construct: Pf12, Plasmodium falciparum 6-cysteine protein, residues N28-S304 (domains D1 and D2); lacks the signal peptide and the GPI-anchor site; After TEV cleavage three residues, GAS, remain at the N-terminus as cloning artefacts; N-glycosylation sites kept; treated with PNGase F before crystallisation; also called Pf12 wildtype; source: Spodoptera frugiperda 21 cells, secreted into growth media, …

[8] = target: T8, Pf41 D1D2 (residues 21-368), untagged (Plasmodium falciparum, UniProt Q8I1Y0); assay: as above
T8 construct: Pf41, Plasmodium falciparum 6-cysteine protein, residues K21-S368 (D1 with the inserted-domain-like region ID, and D2); lacks the signal peptide and ten C-terminal residues; After TEV cleavage three residues, GAS, remain at the N-terminus as cloning artefacts; N-glycosylation sites kept; treated with PNGase F before crystallisation; also called Pf41 wildtype; source: Spodoptera frugiperda 21 …

[9] = target: T9, Pf12 D1 (residues N28-L172) (Plasmodium falciparum, UniProt C6KSX0); assay: as above
T9 construct: Pf12, Plasmodium falciparum, N-terminal 6-cys domain D1, residues N28-L172; also called Pf12 D1 domain; source: Spodoptera frugiperda 21 cells, purified by the same protocol as Pf12 D1D2; not shown: His8, N-terminal, cleaved

[10] = target: T10, Pf12 D2 (residues E174-S304) (Plasmodium falciparum, UniProt C6KSX0); assay: as above
T10 construct: Pf12, Plasmodium falciparum, C-terminal 6-cys domain D2, residues E174-S304; also called Pf12 D2 domain; source: Spodoptera frugiperda 21 cells, purified by the same protocol as Pf12 D1D2; not shown: His8, N-terminal, cleaved

| Binder | binding result [1] | binding result [2] | binding result [3] | binding result [4] | binding result [5] | binding result [6] | binding result [7] | binding result [8] | binding result [9] | binding result [10] |
| --- | --- | --- | --- | --- | --- | --- | --- | --- | --- | --- |
| octa-histidine tagged Pf12 D1D2 (residues 28-304) (domain or fragment, Pf12, Plasmodium falciparum 6-cysteine protein, residues N28-S304 (domains D1 and D2); TEV-cleavable tag left on; loaded on NTA sensors; also called tagged wildtype Pf12; source: Spodoptera frugiperda 21 cells, secreted into growth media, purified as tagged protein (Ni-IMAC, SEC); not shown: His8, N-terminal, kept) NLTCDFNDVYKLEFHPNQQTSVTKLCNLTPNVLEKVTIKCGSDKLNYNLYPPTCFEEVYASRNMMHLKKIKEFVIGSSMFMRRSLTPNKINEVSFRIPPNMMPEKPIYCFCENKKTITINGSNGNPSSKKDIINRGIVEIIIPSLNEKVKGCDFTTSESTIFSKGYSINEISNKSSNNQQDIVCTVKAHANDLIGFKCPSNYSVEPHDCFVSAFNLSGKNENLENKLKLTNIIMDHYNNTFYSRLPSLISDNWKFFCVCSKDNEKKLVFTVEASISS | binds | binds | binds | binds | binds | binds | – | – | – | – |
| nanobody H2 (VHH, alpaca, immunised with Pf12-Pf41 complex; Pf12-specific (D1 domain); source: E. coli WK6, periplasmic extract, purified (HisTrap, SEC)) VHH: QVQLQESGGGSVQAGGSLRLSCTTSRRTRNTHAMGWFRQAPGKEREFVAAISWIDSSTYYADSVKGRFTMSGGNARNTVYLQMNSLEPEDTAVYYCAAGSVVAGFWEEVGYDYWGQGTQVTVSS | – | – | – | – | – | – | binds | no binding | binds | no binding |
